For one substance, kcat/Km, Km and kcat results are on record in ChEMBL document CHEMBL2146416.

Conditions in all cases: Sus scrofa
The subject of data set [1] is NCc1cocc1C(=O)O. The data set can be described thus: (§1) Ratio of Kcat to Km for pig GABA aminotransferase.
For data set [2], the system named is NCc1c[nH]c(C(=O)O)c1. The description is as §1.
For data set [3], the system named is NCc1ccc(C(=O)O)o1. The data set is described as §1.
The subject of data set [4] is NCc1coc(C(=O)O)c1. The description is as §1.
The test system of data set [5] is NCc1ccc(C(=O)O)[nH]1. The description is as §1.
The test system of data set [6] is NCc1ccc(C(=O)O)s1. The data set is described as §1.
In data set [7] the test system is NCc1csc(C(=O)O)c1. The data set is described as §1.
Data set [8] concerns NCc1cocc1C(=O)O. Kind of data set: (§2) Activity of pig GABA aminotransferase using alpha-ketoglutarate as substrate after 16 hrs by Hanes-Woolf plot analysis.
Data set [9] relates to NCc1c[nH]c(C(=O)O)c1. Described as §2.
The test system of data set [10] is NCc1ccc(C(=O)O)o1. The description is as §2.
Data set [11] has as its system NCc1coc(C(=O)O)c1. The data set is described as §2.
For data set [12], the system named is NCc1ccc(C(=O)O)[nH]1. The data set is described as §2.
In data set [13] the test system is NCc1ccc(C(=O)O)s1. The data set is described as §2.
The subject of data set [14] is NCc1csc(C(=O)O)c1. The data set is described as §2.
Another data set deals with NCc1cscc1C(=O)O. The data set is described as §2.

Where only a bound is given, the exact number is not on record here.

4-aminobutyrate aminotransferase, mitochondrial (Sus scrofa), P80147, sequence (P80147 whole entry): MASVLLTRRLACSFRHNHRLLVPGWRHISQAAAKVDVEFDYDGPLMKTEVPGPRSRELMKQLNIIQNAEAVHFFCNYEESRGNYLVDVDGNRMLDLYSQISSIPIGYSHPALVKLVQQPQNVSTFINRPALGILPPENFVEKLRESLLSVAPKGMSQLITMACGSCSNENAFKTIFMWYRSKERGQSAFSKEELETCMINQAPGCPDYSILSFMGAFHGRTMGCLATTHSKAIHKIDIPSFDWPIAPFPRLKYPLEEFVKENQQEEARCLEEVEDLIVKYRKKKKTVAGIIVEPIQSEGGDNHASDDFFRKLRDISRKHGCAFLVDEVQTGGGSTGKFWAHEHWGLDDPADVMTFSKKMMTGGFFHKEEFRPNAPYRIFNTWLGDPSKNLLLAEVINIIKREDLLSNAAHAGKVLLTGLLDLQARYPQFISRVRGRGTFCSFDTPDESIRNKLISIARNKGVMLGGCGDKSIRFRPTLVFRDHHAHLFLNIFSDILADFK

The kcat/Km is the second-order rate constant that governs catalysis at low substrate concentration. For orientation: Km means the concentration of substrate that gives half-maximal velocity. Consider “4-aminobutyrate aminotransferase, mitochondrial (Sus scrofa), P80147”, for which the kcat/Km amounted to 0.005 M⁻¹ s⁻¹ in the data set on NCc1cocc1C(=O)O [1]; 0.04 M⁻¹ s⁻¹ in the data set with NCc1c[nH]c(C(=O)O)c1 [2]; 0.267 M⁻¹ s⁻¹ with NCc1ccc(C(=O)O)o1 [3]; 0.123 M⁻¹ s⁻¹ in the data set on NCc1coc(C(=O)O)c1 [4]; 0.00267 M⁻¹ s⁻¹ with NCc1ccc(C(=O)O)[nH]1 [5]; 0.0267 M⁻¹ s⁻¹ with NCc1ccc(C(=O)O)s1 [6]. Moreover, the kcat/Km in the data set on NCc1csc(C(=O)O)c1 [7] is 0.00517 M⁻¹ s⁻¹. Moreover, the Km in the data set on NCc1cocc1C(=O)O [8] stood at 2800 µM; with NCc1c[nH]c(C(=O)O)c1 [9], 1400 µM; in the data set with NCc1ccc(C(=O)O)o1 [10], 2100 µM; in the data set on NCc1coc(C(=O)O)c1 [11] it was 310 µM; with NCc1ccc(C(=O)O)[nH]1 [12] it was 9500 µM; with NCc1ccc(C(=O)O)s1 [13], 6300 µM. Also, the Km was 1700 µM in the data set with NCc1csc(C(=O)O)c1 [14] and over 10000 µM in the data set with NCc1cscc1C(=O)O. In addition, the kcat is 8.3 ×10⁻⁴ /min in the data set on NCc1cocc1C(=O)O [8]; 3.4 ×10⁻³ /min with NCc1c[nH]c(C(=O)O)c1 [9]; 3.4 ×10⁻² /min in the data set on NCc1ccc(C(=O)O)o1 [10]; 2.3 ×10⁻³ /min with NCc1coc(C(=O)O)c1 [11]; 1.5 ×10⁻³ /min with NCc1ccc(C(=O)O)[nH]1 [12]; 1 ×10⁻² /min in the data set with NCc1ccc(C(=O)O)s1 [13]. Besides, the kcat with NCc1csc(C(=O)O)c1 [14] worked out at 5.2 ×10⁻³ /min.
